Results as given in patent US20120322073A1 (CELGENE, published 2012).

Molecular target: T1, human CRBN protein (cereblon), full-length 51 kDa (human, UniProt Q96SW2 1-442)
T1 construct: also called human CRBN isoform 1 (NP-057386)
Assay: denaturing immunoblot
Procedure: CGN-6-4-5 was diluted 1:10,000 dilution in 0.1% Tween PBS buffer. […] Peptide neutralization was performed by combining antibody with a five-fold (by weight) excess of blocking peptide in 500 μl PBS and incubating with constant rotation at room temperature for 2 hours.

T1 sequence (Q96SW2 whole entry, canonical isoform): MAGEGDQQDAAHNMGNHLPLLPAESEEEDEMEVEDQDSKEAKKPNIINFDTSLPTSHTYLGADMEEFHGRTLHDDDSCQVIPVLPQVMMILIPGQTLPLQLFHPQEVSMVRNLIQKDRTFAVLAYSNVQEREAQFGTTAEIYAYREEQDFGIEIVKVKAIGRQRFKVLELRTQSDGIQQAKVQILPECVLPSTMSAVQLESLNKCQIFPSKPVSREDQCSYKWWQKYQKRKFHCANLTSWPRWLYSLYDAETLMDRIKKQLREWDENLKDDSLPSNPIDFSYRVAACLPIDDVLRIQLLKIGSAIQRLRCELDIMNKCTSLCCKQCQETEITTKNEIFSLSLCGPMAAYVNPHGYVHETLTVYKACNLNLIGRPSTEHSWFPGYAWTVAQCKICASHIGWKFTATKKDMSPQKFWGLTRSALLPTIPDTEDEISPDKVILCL

B1: Rabbit monoclonal antibody CGN-6-4-5 (antibody, V domains shown)
VH: QSVEESGGRLVTPGTPLTLTCTVSGFSLSRYGVSWVRQAPGKGLEHIGYIYSDPGMTFYATWAKGRFTISKTSSTTVDLKMTSPTIEDTATYFCARGTPLASYSTWGPGTLVTISL
VL: AQVLTQTPASVSAAVGGTVTINCQSSENIYKNNYLSWFQQKPGQPPKLLIYQASTLASGVPSRFKGSGSGTRFSLTISDLECDDAATYYCAGGYSGNIFTFGGGTEVVVKG
notes: Rabbit IgG from a CGN-6 hybridoma clone of rabbits primed with residues 65-76 of human CRBN; also called monoclonal anti-CRBN antibody
  binding result: binds
